# From patent US20260274993A1 (HUMMINGBIRD BIOSCIENCE PTE, published 2026)
# Substitutions are numbered along the chain they refer to. Where two headings read alike, the source gives them in different places.
# B1: D011-1E11p.IgG2a (antibody, V domains shown)
# VH: EVQLQQSGPELVKPGASMKISCKASGYSFTGSTMNWVKQSPGKNLEWIGLINPYNGGTSYNQKFEGKATLTVDKSSSTAYMELLSLTSVDSAVYYCASRGKNGYDGRDFDCWGQGTSVTVSS
# VL: DIVLTQSPLSLPVNIGDQASISCKSTKSLLNSGGFTYLDWYLQKPGQSPQLLIYLVSNRFSGVPDRFSGSGSGTDFTLKISRVEAEDLGVYYCFQSNYFPFTFGSGTKLEIKR
# B2: D011-6040 (antibody, human IgG1, kappa, V domains shown)
# VH: EVQLQQSGAEFVRSGASVKLSCTASGFNIKDYYMHWVKQRPEQGLDWIGWIDPENGDADYDPKFQGKATMTADTSSNTAYLHLSSLTSEDAAVYYCNACHYYGYEDAMDYWGQGTSVTVSS
# VL: DIQMTQSPSSLSASLGERVSLTCRASQEISGYLSWLQQKPDGTIKRLIYAASTLDSGVPKRFSGSRSGSDYSLTISSLESEDFADYYCLQYAGYPRTFGGGTRLEIKR
# notes: also called [3]; D011-6040.IgG2a
# B3: D011-7016.hIgG1 (antibody)
# heavy: not shown
# light: DIVMTQSPATLSVTPGDSVSLSCRANQSIDNNLHWYQQRSHESPRLLINYASQSISGIPSRFSGSGSGTDFTLSISSVETEDFGMYFCQQSYGWPYTFGGGTKLEIKRTVAAPSVFIFPPSDEQLKSGTASVVCLLNNFYPREAKVQWKVDNALQSGNSQESVTEQDSKDSTYSLSSTLTLSKADYEKHKVYACEVTHQGLSSPVTKSFNRGEC
# B4: D011-6039.IgG2a (antibody, V domains shown)
# VH: EVMLVESGGGLVQPGGSLKLSCAASGFTFSSYGMSWVRQTPDKRLELVATINSNGVNTYYPDSVKGRFTISRDNAKNTLYLQMSSLKSEDTAMYYCARVPFDYWGQGTSLTVSS
# VL: DIVMTQSPAIMSASLGEKVTMSCRASSSVDYIYWYQQKSDASPKLWIYYTSTLAPGVPARFSGSGSGNSYSLTISSMEGEDAATYYCQQFTSSPWTFGGGTRLEIKR
# B5: D011-7016-LD1.IgG2a (antibody, V domains shown)
# VH: EVQLVESGPSLVKPSQTLSLICSVTGDAITSGYWNWVRKFPGNKLEYMGYISYSGSAHYNPSLKSRISITRDTSKNQYYLQLNSMTTEDTATYYCASYSFAYWGQGTLVTVSA
# VL: DIVMTQSPATLSVTPGDSVSLSCRAQQSIDNQLHWYQQRSHESPRLLINYASQSISGIPSRFSGSGSGTDFTLSISSVETEDFGMYFCQQSYGWPYTFGGGTKLEIKR
# B6: D011-7016-LD2.IgG2a (antibody, V domains shown)
# VH: B5 VH
# VL: B5 VL with Q26S
# notes: also called [8]
# B7: D011-7016.IgG2a (antibody)
# heavy: EVQLVESGPSLVKPSQTLSLICSVTGDSITSGYWNWVRKFPGNKLEYMGYISYSGSAHYNPSLKSRISITRDTSKNQYYLQLNSMTTEDTATYYCASYSFAYWGQGTLVTVSAASTKGPSVFPLAPSSKSTSGGTAALGCLVKDYFPEPVTVSWNSGALTSGVHTFPAVLQSSGLYSLSSVVTVPSSSLGTQTYICNVNHKPSNTKVDKKVEPKSCDKTHTCPPCPAPELLGGPSVFIFPPKIKDVLMISLSPIVTCVVVDVSEDDPDVQISWFVNNVEVHTAQTQTHREDYNSTLRVVSALPIQHQDWMSGKEFKCKVNNKDLPAPIERTISKPKGSVRAPQVYVLPPPEEEMTKKQVTLTCMVTDFMPEDIYVEWTNNGKTELNYKNTEPVLDSDGSYFMYSKLRVEKKNWVERNSYSCSVVHEGLHNHHTTKSFSRTPGK
# light: B3 light
# notes: also called [4]
# How the values were obtained:
# tabalumab [1] = test: flow cytometry, EC50 of % parent (FITC), CHO cells overexpressing surface tabalumab (Taba)
# Sequence of tabalumab (VH, as listed by the source, chain 1 of 2): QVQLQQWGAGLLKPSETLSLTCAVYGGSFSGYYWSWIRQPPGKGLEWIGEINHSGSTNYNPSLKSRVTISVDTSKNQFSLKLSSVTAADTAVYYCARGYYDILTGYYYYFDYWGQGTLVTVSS
# Sequence of tabalumab (VL, as listed by the source, chain 2 of 2): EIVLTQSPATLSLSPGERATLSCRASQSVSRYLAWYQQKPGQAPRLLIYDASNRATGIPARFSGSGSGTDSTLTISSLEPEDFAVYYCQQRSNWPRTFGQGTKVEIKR
# Protocol: (§1) FACS was performed according to standard protocols. Briefly, cells were assayed in PBS with 0.5% BSA and 2 mM EDTA. […] Following this, cells were incubated with a secondary anti-mouse FITC antibody for 30 mins at 4° C. FITC readout was measured by FACS on a benchtop flow cytometer.
# Zanolimumab mutant FR1 [2] = biological target: T1, Zanolimumab mutant FR1; test: flow cytometry, % parent (FITC), CHO cells expressing zanolimumab mutant FR1
# T1 construct: also called Zano FR1
# T1 sequence (VH, as listed by the source, chain 1 of 2): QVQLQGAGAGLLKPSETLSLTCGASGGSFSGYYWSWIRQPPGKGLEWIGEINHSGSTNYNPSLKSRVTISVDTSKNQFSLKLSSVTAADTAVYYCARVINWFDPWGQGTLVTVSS
# T1 sequence (VL, as listed by the source, chain 2 of 2): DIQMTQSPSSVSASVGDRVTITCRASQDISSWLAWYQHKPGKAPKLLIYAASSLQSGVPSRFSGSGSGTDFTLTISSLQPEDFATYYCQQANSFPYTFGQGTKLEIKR
# Protocol: as §1
# 3A6 [3] = biological target: T2, 3A6; test: flow cytometry, EC50 of % parent (FITC), CHO cells overexpressing surface 3A6
# T2 construct: also called 3A6 antibody (containing VH4-34 antigen); 3A6 (VH4-34 antigen)
# T2 sequence (VH, as listed by the source, chain 1 of 2): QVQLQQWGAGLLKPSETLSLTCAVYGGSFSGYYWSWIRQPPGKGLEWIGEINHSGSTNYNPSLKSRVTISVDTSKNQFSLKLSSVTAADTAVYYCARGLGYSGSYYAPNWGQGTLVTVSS
# T2 sequence (VL, as listed by the source, chain 2 of 2): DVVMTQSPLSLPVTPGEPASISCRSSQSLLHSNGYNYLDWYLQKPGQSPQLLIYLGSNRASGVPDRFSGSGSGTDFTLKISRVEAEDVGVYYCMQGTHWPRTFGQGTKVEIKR
# Protocol: as §1
# zanolimumab [4] = biological target: T3, zanolimumab; test: flow cytometry, EC50 of % parent (FITC), CHO cells overexpressing surface zanolimumab (Zano); curve in FIG. 1A reaches only about 45 % parent
# T3 construct: VH4-34-containing antibody used as the antigen, overexpressed on the surface of CHO cells; also called Zano.hIgG1
# T3 sequence (VH, as listed by the source, chain 1 of 2): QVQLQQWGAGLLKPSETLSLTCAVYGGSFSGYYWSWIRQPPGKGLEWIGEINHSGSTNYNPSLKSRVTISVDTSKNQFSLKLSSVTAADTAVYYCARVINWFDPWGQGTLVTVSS
# Protocol: as §1
# [5] = biological target: T4, antibodies containing VH4-34 endogenously expressed by cell line OCI-Ly3; test: flow cytometry, EC50 of % parent (PE), OCI-Ly3 cells endogenously expressing VH4-34; curve in FIG. 4A reaches only about 40 % parent
# T4 construct: Whole, on cells; also called VH4-34-expressing cell line OCI-Ly3
# Protocol: (§2) FACS was performed according to standard protocols. Briefly, cells were assayed in PBS with 0.5% BSA and 2 mM EDTA. Live dead staining was performed with a live dead cell dye for 15 minutes at 4° C. […] Following this, cells were incubated with a secondary PE goat anti-mouse IgG for 30 mins at 4° C. and PE readout was measured.
# 3A6 [6] = biological target: T2, 3A6; test: flow cytometry, EC50 of % parent (FITC), CHO cells overexpressing surface 3A6; remark: listed apart in the source
# Protocol: as §1
# Zanolimumab mutant FR1 [7] = biological target: T1, Zanolimumab mutant FR1; test: flow cytometry, EC50 of % parent (FITC), CHO cells expressing zanolimumab mutant FR1 (ZANO FR1); curve in FIG. 2A reaches about 95 % parent
# Protocol: as §1
# Tabalumab mutant FR1 [8] = biological target: T5, Tabalumab mutant FR1; test: flow cytometry, EC50 of % parent (FITC), CHO cells expressing tabalumab mutant FR1 (TABA FR1); curve in FIG. 2A levels at only about 15 % parent
# T5 construct: also called Taba FR1
# T5 sequence (VH, as listed by the source, chain 1 of 2): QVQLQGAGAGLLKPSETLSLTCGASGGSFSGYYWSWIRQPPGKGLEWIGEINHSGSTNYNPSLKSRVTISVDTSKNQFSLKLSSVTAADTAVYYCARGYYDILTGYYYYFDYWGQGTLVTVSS
# Protocol: as §1
# 3A6 mutant FR1 [9] = biological target: T6, 3A6 mutant FR1; test: flow cytometry, EC50 of % parent (FITC), CHO cells expressing 3A6 mutant FR1 (3A6 FR1); curve in FIG. 2A reaches about 95 % parent
# T6 construct: also called 3A6 FR1; 3A6-FR1 (VH4-34 FR1 mutant)
# T6 sequence (VH, as listed by the source, chain 1 of 2): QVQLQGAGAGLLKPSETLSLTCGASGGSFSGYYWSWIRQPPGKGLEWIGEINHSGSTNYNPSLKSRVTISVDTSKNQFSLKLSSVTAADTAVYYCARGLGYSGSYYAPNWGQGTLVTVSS
# Protocol: as §1
# tabalumab [10] = test: flow cytometry, EC50 of % parent (FITC), CHO cells overexpressing surface tabalumab (TABA)
# Protocol: as §1
# zanolimumab [11] = biological target: T3, zanolimumab; test: flow cytometry, EC50 of % parent (FITC), CHO cells overexpressing surface zanolimumab (ZANO)
# Protocol: as §1
# zanolimumab [12] = biological target: T3, zanolimumab; test: cell-based or functional assay
# tabalumab [13] = test: cell-based or functional assay
# [14] = biological target: T4, antibodies containing VH4-34 …; test: cell-based or functional assay
# [15] = biological target: T4, antibodies containing VH4-34 …; test: flow cytometry, EC50 of % parent (PE), OCI-Ly3 cells endogenously expressing VH4-34
# Protocol: as §2
# Tabalumab mutant FR1 [16] = biological target: T5, Tabalumab mutant FR1; test: flow cytometry, % parent (FITC), CHO cells expressing tabalumab mutant FR1
# Protocol: as §1
# Zanolimumab mutant FR1 [17] = biological target: T1, Zanolimumab mutant FR1; test: flow cytometry, % parent (FITC), CHO cells expressing zanolimumab mutant FR1; remark: listed apart in the source
# Protocol: as §1
# 3A6 mutant FR1 [18] = biological target: T6, 3A6 mutant FR1; test: flow cytometry, % parent (FITC), CHO cells expressing 3A6 mutant FR1
# Protocol: as §1
# Tabalumab mutant FR1 [19] = biological target: T5, Tabalumab mutant FR1; test: flow cytometry, % parent (FITC), CHO cells expressing tabalumab mutant FR1; remark: listed apart in the source
# Protocol: (§3) For FACS evaluation, cells were assayed in PBS with 0.5% BSA and 2 mM EDTA. […] Cells were incubated with a secondary anti-mouse FITC antibody for 20 mins at 4° C. FITC readout was measured by FACS.
# 3A6 [20] = biological target: T2, 3A6; test: flow cytometry, EC50 of % parent (FITC), CHO cells overexpressing surface 3A6; remark: listed apart in the source
# Protocol: as §3
# tabalumab [21] = test: flow cytometry, EC50 of % parent (FITC), CHO cells overexpressing surface tabalumab (Taba); remark: listed apart in the source
# Protocol: as §3
# 3A6 mutant FR1 [22] = biological target: T6, 3A6 mutant FR1; test: flow cytometry, % parent (FITC), CHO cells expressing 3A6 mutant FR1; remark: listed apart in the source
# Protocol: as §3
# zanolimumab [23] = biological target: T3, zanolimumab; test: flow cytometry, EC50 of % parent (FITC), CHO cells overexpressing surface zanolimumab (Zano)
# Protocol: as §3
# Zanolimumab mutant FR1 [24] = biological target: T1, Zanolimumab mutant FR1; test: flow cytometry, % parent (FITC), CHO cells expressing zanolimumab mutant FR1; remark: listed apart in the source
# Protocol: as §3
# 3A6 [25] = biological target: T2, 3A6; test: ELISA, human IgG1 antigen captured on anti-human IgG Fc;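 also: humanized antibodies bound to human IgG1 antigen captured at 1 µg/ml on anti-human IgG Fc plates, detected with anti-mouse IgG Fc/HRP, VSTB112 serving as negative control protein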
# Protocol: The binding affinity of each humanized antibody for 3A6 antibody (containing VH4-34 antigen), 3A6-FR1 (VH4-34 FR1 mutant) and VSTB112 (negative control protein) was evaluated.
# Plates were coated with 1 ug/ml of anti-human IgG Fc overnight at 4° C. Plates were washed thrice with PBS/0.05% Tween (PBST) before blocking with 5% BSA for 1 h at room temp (RT). Plates were then washed again before addition of 1 μg/ml of 3A6 (VH4-34 antigen), 3A6-FR1 (VH4-34 FR1 mutant) or VSTB112 (negative control protein) human IgG1 proteins. Plates were washed thrice. […] After washing the plates, anti-mouse IgG Fc/HRP diluted 1:5000 in 1% BSA was added and incubated for 1 h at RT. Plates were washed before detection using 1-step ELISA substrate.
# [26] = biological target: T4, antibodies containing VH4-34 …; test: flow cytometry, EC50 of % parent, OCI-Ly3 cells endogenously expressing VH4-34
# Protocol: (§4) Binding was assessed by FACS. Briefly, cells were assayed in PBS with 0.5% BSA and 2 mM EDTA. Live dead staining was performed with a live dead cell dye for 15 minutes at 4° C. […] Following this, cells were incubated with a secondary PE goat anti-mouse IgG (1:300) for 30 mins at 4° C. and PE readout was measured.
# [27] = biological target: T4, antibodies containing VH4-34 …; test: flow cytometry, EC50 of MFI, OCI-Ly3 cells endogenously expressing VH4-34
# Protocol: as §4
# zanolimumab [28] = biological target: T3, zanolimumab; test: flow cytometry (geomean MFI), CHO cells overexpressing the surface antibody
# 3A6 [29] = biological target: T2, 3A6; test: as above
# tabalumab [30] = test: as above
# IGM-55.5 = biological target: T7, IGM-55.5; test: ELISA on plate-coated IGM-55.5 (1 ug/ml), detection with HRP goat anti-mouse IgG
# T7 construct: Cold agglutinin antibody coated on the plate in the ELISA
# Protocol: Plate was washed 3× with TBS+0.1% Tween 20. […] A secondary antibody (HRP-conjugated goat anti-mouse IgG) was prepared at 1:5000 dilution in blocking buffer and added to the plate with 1 hr incubation RT. TMB ELISA substrate was added and incubated for 15 mins at RT in the dark, before adding the stop solution. The absorbance was read at 450 nm.
binder,measurement,setting,value
B1,EC50,tabalumab [1],0.0823 nM
same,binding result,Zanolimumab mutant FR1 [2],no binding (tested: Log M about -7.2 (about 7e-8 M))
same,EC50,3A6 [3],1.52 nM
same,EC50,zanolimumab [4],3.49 nM
B2,EC50,[5],0.661 nM
same,EC50,3A6 [6],0.00895 nM
same,EC50,Zanolimumab mutant FR1 [7],0.821 nM
same,EC50,Tabalumab mutant FR1 [8],3.93 nM
same,EC50,3A6 mutant FR1 [9],4.8 nM
same,EC50,tabalumab [10],0.00587 nM
same,EC50,zanolimumab [11],0.0043 nM
B3,"EC50 of ADCC reporter luminescence (RLU), Jurkat Lucia NFAT-CD16 effector cells with zanolimumab-expressing CHO target cells",zanolimumab [12],1.09 nM
same,"EC50 of ADCC reporter luminescence (RLU), Jurkat Lucia NFAT-CD16 effector cells with tabalumab-expressing CHO target cells",tabalumab [13],1.02 nM
same,"EC50 of ADCP (% CFSE of CD14+ cells), M0 macrophages with CFSE-labelled OCI-Ly3 target cells",[14],0.0615 nM
B4,EC50,[15],0.273 nM
same,binding result,Tabalumab mutant FR1 [16],no binding (tested: Log M about -7.2 (about 7e-8 M))
same,binding result,Zanolimumab mutant FR1 [17],no binding (tested: Log M about -7.2 (about 7e-8 M))
same,EC50,3A6 [6],8.96 nM
same,binding result,3A6 mutant FR1 [18],no binding (tested: Log M about -7.2 (about 7e-8 M))
same,EC50,tabalumab [10],0.0444 nM
same,EC50,zanolimumab [11],10.4 nM
B5,binding result,Tabalumab mutant FR1 [19],no binding (tested: Log M about -8.1 (about 8e-9 M))
same,EC50,3A6 [20],0.0104 nM
same,EC50,tabalumab [21],0.00863 nM
same,binding result,3A6 mutant FR1 [22],no binding (tested: Log M about -8.1 (about 8e-9 M))
same,EC50,zanolimumab [23],0.0105 nM
same,binding result,Zanolimumab mutant FR1 [24],no binding (tested: Log M about -8.1 (about 8e-9 M))
B6,binding result,Tabalumab mutant FR1 [19],no binding (tested: Log M about -8.1 (about 8e-9 M))
same,EC50,3A6 [20],0.00909 nM
same,EC50,tabalumab [21],0.00688 nM
same,EC50,3A6 [25],0.0254 nM
same,EC50,[26],0.00477 nM
same,binding result,3A6 mutant FR1 [22],no binding (tested: Log M about -8.1 (about 8e-9 M))
same,EC50,[27],0.243 nM
same,EC50,zanolimumab [23],0.00892 nM
same,binding result,Zanolimumab mutant FR1 [24],no binding (tested: Log M about -8.1 (about 8e-9 M))
same,EC50,zanolimumab [28],0.692 nM
same,EC50,3A6 [29],0.519 nM
same,EC50,tabalumab [30],0.28 nM
B7,binding result,Tabalumab mutant FR1 [19],no binding (tested: Log M about -8.1 (about 8e-9 M))
same,EC50,3A6 [20],0.00751 nM
same,EC50,tabalumab [21],0.00558 nM
same,EC50,[15],0.0194 nM
same,EC50 (read off the curve),IGM-55.5,~0.0002 nM
same,EC50,3A6 [6],0.0258 nM
same,binding result,3A6 mutant FR1 [18],no binding (tested: Log M about -7.2 (about 7e-8 M))
same,EC50,zanolimumab [23],0.00926 nM
same,EC50,tabalumab [10],0.0313 nM
same,binding result,Zanolimumab mutant FR1 [24],no binding (tested: Log M about -8.1 (about 8e-9 M))
same,EC50,zanolimumab [11],0.0164 nM
